Test results reported in article PMC6565748, “Environmental pH and peptide signaling control virulence of Streptococcus pyogenes via a quorum-sensing pathway” (Nature Communications, 2019).
Where a SMILES comes first, the peptide text is derived from it. Where no end group is shown, it is not given here. The star is where a group is joined. FITC = O=C1OC2(c3ccc(O)cc3Oc3cc(O)ccc32)c2ccc(NC(=S)*)cc21

Assays:
SpeBM = assay: SpeB protease activity assay with SpeBZ-C192S zymogen as substrate; format: biochemical, Streptococcus pyogenes; conditions: SDS-PAGE; 0.25 mg/ml C192S zymogen, 0.1 µg mature SpeB, different buffer pH
Description: Purified C192S was added to a final concentration of 0.25 mg/ml in reaction mixture containing 0.1 µg of mature SpeB in different buffer pH conditions. Aliquots were collected at indicated time points and reaction was stopped by adding SDS gel-loading buffer. Proteolytic processing of C192S zymogen into mature form was visualized by SDS-PAGE.

[1] = test system: RopB–speB promoter interactions; assay: FP assay of RopB–DNA binding in presence of SIP peptides; parameters: species or system Streptococcus pyogenes; conditions: fluoresceinated oligoduplexes with RopB binding sites from speB promoter, RopB complexed with SIP peptide (Supplementary Fig. 8c, d)
Description: Fluorescence polarization-based RopB-ligand binding experiments were performed with a Biotek microplate reader (Biotek) using the intrinsic fluorescence of fluorescein labeled DNA or synthetic peptides. The polarization (P) of the labeled DNA or synthetic peptides increases as a function of protein binding, and equilibrium dissociation constants were determined from plots of millipolarization (P × 10^–3) against protein concentration. For RopB–DNA-binding studies, 1 nM 5′-fluoresceinated oligoduplex in binding buffer (20 mM Tris–HCl pH 8.5, 200 mM NaCl, 1 mM TCEP and 25% DMSO) was titrated against increasing concentrations of purified RopB and the resulting change in polarization measured. Samples were excited at 490 nm and emission measured at 530 nm. The RopB-peptide-binding studies were performed in a peptide-binding buffer composed of 20 mM potassium phosphate pH 6.0, 75 mM Nacl, 2% DMSO, 1 mM EDTA and 0.0005% Tween 20. All data were plotted using KaleidaGraph and the resulting plots were fitted with the equation P = {(Pbound − Pfree)[protein]/(KD + [protein])} + Pfree, where P is the polarization measured at a given protein concentration, Pfree is the initial polarization of the free ligand, Pbound is the maximum polarization of specifically bound ligand and [protein] is the protein concentration. Nonlinear least squares analysis was used to determine Pbound, and Kd. […]

[2] = test system: speB expression in SIP* mutant strain; assay: Synthetic peptide addition assay, speB transcript level by qRT-PCR in SIP* mutant strain; format: cell-based, Streptococcus pyogenes
Description: Synthetic peptides of high purity (>90% purity) obtained from Peptide 2.0 (Chantilly, VA) were suspended in 100% DMSO to prepare a 10 mM stock solution. Stock solutions were aliquoted and stored at −20 °C until use. Working stocks were prepared by diluting the stock solution in 25% DMSO.
GAS strains were grown to the indicated A600 and incubated with two volumes of RNAprotect (Qiagen) for 10 min at room temperature. RNA isolation and purification were performed with an RNeasy kit (Qiagen). After quality control analysis, cDNA was synthesized from the purified RNA using Superscript III (Invitrogen) and Taqman qRT-PCR was performed with an ABI 7500 Fast System (Applied Biosystems). Comparison of transcript levels was performed by the ∆CT method of analysis using tufA as the endogenous control gene[5],[78]. The primers and probes used for qRT-PCR are listed in Supplementary Table 2.

RopB = target: T1, RopB (Streptococcus pyogenes, UniProt Q9FB04); assay: Fluorescence polarization (FP) assay of RopB binding to fluoresceinated SIP peptides; conditions: Fig. 3c; compared to SIP (SIP-WT)
T1 sequence (Q9FB04 1-280): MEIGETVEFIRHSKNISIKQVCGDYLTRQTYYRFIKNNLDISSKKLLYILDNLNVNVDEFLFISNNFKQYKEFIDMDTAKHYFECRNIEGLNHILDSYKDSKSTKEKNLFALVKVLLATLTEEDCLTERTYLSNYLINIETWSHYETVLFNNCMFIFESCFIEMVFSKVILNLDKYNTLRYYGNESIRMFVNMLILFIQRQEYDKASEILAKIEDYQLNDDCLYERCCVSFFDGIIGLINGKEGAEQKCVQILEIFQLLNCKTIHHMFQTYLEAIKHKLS
Description: The coding regions of the full-length and C-terminal domain (RopB–CTD) (amino acids 56–280) of ropB gene of strain MGAS10870 were cloned into plasmids pET-28a and pET-21b, respectively. Protein was overexpressed in E. coli strain BL21 (DE3). Protein overexpression and purification for both full-length RopB and RopB–CTD were carried out as described previously[37],[68]. The proteins were purified to >95% homogeneity and concentrated to a final concentration of ~ 20 mg/ml.
Fluorescence polarization-based RopB-ligand binding experiments were performed with a Biotek microplate reader (Biotek) using the […] fluorescence of fluorescein labeled DNA or synthetic peptides. The polarization (P) of the labeled DNA or synthetic peptides increases as a function of protein binding, and equilibrium dissociation constants were determined from plots of millipolarization (P × 10^–3) against protein concentration. For RopB–DNA-binding studies, 1 nM 5′-fluoresceinated oligoduplex in binding buffer (20 mM Tris–HCl pH 8.5, 200 mM NaCl, 1 mM TCEP and 25% DMSO) was titrated against increasing concentrations of purified RopB and the resulting change in polarization measured. Samples were excited at 490 nm and emission measured at 530 nm. […]

[3] = target: regulator of proteinase B (RopB), full-length, wild type; assay: FP assay; conditions: for Kd: parent: 13 ± 0.3 nM
[4] = target: synthetic SIP variant SIP-L6A (Streptococcus pyogenes); assay: fluorescence polarisation; fluorescein labeled synthetic peptide titrated with purified RopB protein; 20 mM potassium phosphate pH 6.0, 75 mM NaCl, 2% DMSO, 1 mM EDTA, 0.0005% Tween 20
[5] = target: synthetic SIP peptide containing fluorescein modification at its amino-terminus (FITC-SIP); assay: FP assay; conditions: for Kd: parent: 6.3 ± 0.5 nM
[6] = target: T2, regulator of proteinase B (RopB), full-length, wild type (Streptococcus pyogenes (strain …)); assay: FP; pH 7.0
T2 chain: T1 sequence (Q9FB04 1-280)

[7] = target: T2, regulator of proteinase B (RopB), …; assay: FP; pH 8.5
[8] = target: T2, regulator of proteinase B (RopB), …; assay: FP; pH 7.5
[9] = target: T2, regulator of proteinase B (RopB), …; assay: FP; pH 5.5
[10] = target: T2, regulator of proteinase B (RopB), …; assay: FP; pH 9.0
[11] = target: T2, regulator of proteinase B (RopB), …; assay: FP; pH 6.0
[12] = target: T2, regulator of proteinase B (RopB), …; assay: FP; pH 6.5
[13] = target: T2, regulator of proteinase B (RopB), …; assay: FP; pH 8.0

For CC(C)C[C@H](NC(=O)[C@H]1O[C@@H]1C(=O)O)C(=O)NCCCCN=C(N)N [E64], the “Proteolytic cleavage of SpeBZ-C192S by SpeBM” value (SpeBM) was “inhibited”.

CSCC[C@H](N)C(=O)N[C@@H](Cc1c[nH]c2ccccc12)C(=O)N[C@@H](CC(C)C)C(=O)N[C@@H](CC(C)C)C(=O)N[C@@H](CC(C)C)C(=O)N[C@@H](C)C(=O)N[C@@H](Cc1ccccc1)C(=O)N[C@@H](CC(C)C)C(=O)O [SIP-L6A] (H-MWLLLAFL-OH; N-terminus and C-terminus assumed) was tested, and the “Effect on RopB–promoter (operator sequence) interactions” value [1] was “WT-like binding to operator sequences”, the “Ability to activate RopB-dependent speB expression” value ([2]; SIP addition assay, SIP* mutant strain, reference DMSO-supplemented strain (Fig. 3d)) was “partial activity” and the “Fold change reduction in Kd” value (RopB) was ~ 2.7.

For CSCC[C@H](N)C(=O)N[C@@H](Cc1c[nH]c2ccccc12)C(=O)N[C@@H](CC(C)C)C(=O)N[C@@H](CC(C)C)C(=O)N[C@@H](CC(C)C)C(=O)N[C@@H](CC(C)C)C(=O)N[C@@H](Cc1ccccc1)C(=O)N[C@@H](CC(C)C)C(=O)O [SIP] (H-MWLLLLFL-OH; N-terminus and C-terminus assumed), the “SIP-dependent speB expression (speB transcript level)” value ([2]; SIP* mutant strain at A600 ~1.7, THY broth adjusted to different pH, synthetic SIP, 1 h, relative to unsupplemented strain) was “maximal within a very narrow pH range (pH 5.5–6.0)” and the “Ability to induce speB expression” value ([2]; SIP* mutant strain, THY pH 8, SIP added even at 100-fold excess, 1 h) was “lost the ability to induce speB expression”.

In the case of “SpeB-inducing peptide (SIP), synthetic, unmodified F7A”, the ratio to parent [3] is reported as 11 and the Kd [3] is reported as 142 nM.

“SpeB-inducing peptide (SIP), synthetic, unmodified L3A” was tested, and the ratio to parent [3] was 41 and the Kd [3] was 534 nM.

“SpeB-inducing peptide (SIP), synthetic, unmodified L4A” gave a ratio to parent [3] of 27 and a Kd [3] of 358 nM.

For “SpeB-inducing peptide (SIP), synthetic, unmodified L5A”, the ratio to parent [3] was 48 and the Kd [3] was 625 nM.

“SpeB-inducing peptide (SIP), synthetic, unmodified L6A” gave a Kd [3] of 36 nM.

“SpeB-inducing peptide (SIP), synthetic, unmodified L8A” gave a ratio to parent [3] of 8 and a Kd [3] of 106 nM.

Molecule “SpeB-inducing peptide (SIP), synthetic, unmodified M1A” has a ratio to parent [3] of 20 and a Kd [3] of 259 nM.

For “SpeB-inducing peptide (SIP), synthetic, unmodified W2A”, the ratio to parent [3] was 44 and the Kd [3] was 570 nM.

In the case of “regulator of proteinase B (RopB), full-length, wild type (receptor)”, the fold reduction in binding affinity compared to SIP [4] is reported as 2.7 fold.

For “regulator of proteinase B (RopB), full-length, wild type F155A”, the ratio to parent [5] was 5 and the Kd [5] was 33 nM.

“regulator of proteinase B (RopB), full-length, wild type M267A” showed a ratio to parent [5] of 44 and a Kd [5] of 283 nM.

“regulator of proteinase B (RopB), full-length, wild type N152A” was tested, and the ratio to parent [5] was 28 and the Kd [5] was 243 nM.

Molecule “regulator of proteinase B (RopB), full-length, wild type N192A” has a ratio to parent [5] of 72 and a Kd [5] of 462 nM.

With “regulator of proteinase B (RopB), full-length, wild type R188A” the ratio to parent [5] was 67 and the Kd [5] was 429 nM.

B1: synthetic SIP peptide containing fluorescein modification at its amino-terminus (FITC-SIP) (peptide)
chain: {FITC}-MWLLLLFL
B1 gave a Kd [6] of 11.8 nM, a Kd [7] of 222 nM and a Kd [8] of 42.1 nM. The Kd [9] was 5.4 nM, the Kd [10] was 320 nM and the Kd [11] was 1.8 nM. For the same molecule, the Kd [12] was 2.9 nM and the Kd [13] was 78.6 nM.
